Test results published in patent publication US20250313631A1 (HUMMINGBIRD BIOSCIENCE PTE, published 2025).

Tests used:
[1] = biological target: T1, recombinant human VISTA (His-tagged) (human, UniProt Q9H7M9 33-194); assay: ELISA, VISTA-HIS protein coated; ELISA, human VISTA-HIS
T1 construct: bought soluble protein (Sino Biological); also called hVISTA; human VISTA polypeptide

[2] = biological target: T2, recombinant cynomolgus macaque VISTA (His-tagged) (cynomolgus macaque, UniProt A0A7N9IB00 33-194); assay: ELISA, NHP VISTA-HIS protein coated; ELISA, NHP (cynomolgus) VISTA-HIS
T2 construct: also called cyno VISTA; cynomolgus monkey VISTA

[3] = biological target: T3, recombinant rat VISTA (His-tagged) (rat, UniProt A0ABK0L5H3 33-192); assay: SPR (Biacore), VISTA-HIS captured, antibody as analyte, 1:1 model; SPR (Biacore), rat VISTA
T3 sequence: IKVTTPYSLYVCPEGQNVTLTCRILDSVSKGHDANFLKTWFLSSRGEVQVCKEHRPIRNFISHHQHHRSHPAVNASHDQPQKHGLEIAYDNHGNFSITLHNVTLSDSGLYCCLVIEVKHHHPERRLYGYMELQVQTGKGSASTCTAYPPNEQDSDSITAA

- EC50 [1]: 0.00512 nM
- EC50 [2]: 0.0121 nM
- Kd [3]: 0.382 nM
B1: V4-C26 hIgG4 (antibody)
heavy: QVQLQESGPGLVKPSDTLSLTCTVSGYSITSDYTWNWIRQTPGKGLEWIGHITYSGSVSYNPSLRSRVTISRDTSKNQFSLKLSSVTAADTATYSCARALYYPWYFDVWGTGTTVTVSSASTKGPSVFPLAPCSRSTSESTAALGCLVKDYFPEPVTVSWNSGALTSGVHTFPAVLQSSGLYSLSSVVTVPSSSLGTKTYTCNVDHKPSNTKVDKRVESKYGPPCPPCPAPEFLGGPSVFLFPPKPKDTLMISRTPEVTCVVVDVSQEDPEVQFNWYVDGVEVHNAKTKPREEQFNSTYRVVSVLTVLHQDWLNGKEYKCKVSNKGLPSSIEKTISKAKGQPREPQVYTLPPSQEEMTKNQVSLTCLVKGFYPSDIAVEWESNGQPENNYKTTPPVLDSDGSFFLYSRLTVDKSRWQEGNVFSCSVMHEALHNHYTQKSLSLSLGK
light: EIVLTQSPATLSLSPGERATLSCRASSSVGYIHWYQQKPGQAPRPIIYTTSNRATGIPARFSGSGSGTDNTLTISSLEPEDSAVYYCQQWSSYPPITFGGGTKLEVKRTVAAPSVFIFPPSDEQLKSGTASVVCLLNNFYPREAKVQWKVDNALQSGNSQESVTEQDSKDSTYSLSSTLTLSKADYEKHKVYACEVTHQGLSSPVTKSFNRGEC
notes: human IgG4 (S228P)/kappa format; also called HMBD-002; HMBD-002-V4C26
